The nanobody polyreactivity screen of Harvey et al. (2022)

Assay: yeast display, Sf9 membrane polyspecificity reagent, FACS + sequencing; frameworks hold sequencing errors
Procedure, shortened: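 Nanobodies from a synthetic yeast display library (Saccharomyces cerevisiae BJ5465), induced 36–48 hours with galactose, were stained 1 hour at 4 °C with 10% biotinylated, detergent-solubilized Sf9 membrane reagent, enriched on streptavidin microbeads, then FACS-sorted. Anti-HA (expression) and streptavidin (reagent binding) fluorescence set low and high (top ~1%) gates. Polyreactivity labels come from the gate of origin. Genes were colony-PCR amplified, MiSeq 2 × 250 sequenced and filtered by CDR length.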

Sequence	polyreactivity (PSR sort gate)
QVQLVESGGGLVQAGGSLRLSCAASGSILFNNAMGWYRQAPGKEWELVAAMGANGGNTYYADSVKGRFTISCDNATNTVYLQMTSLKPEDTAVYYCSADKTLYGGGAWTRWFHYTYGYWGQGTQVTVSS	high polyreactivity
QVQLVESGGGLVQAGGSLRLSCAAYGIIFYLYAMGWYRTAPGKERELVAAITWNGGRTYYADSVKGRFTISRDNAKNTVYLQMNSLKPEDTAVYYCNTDRRWRGTYTTRYDYWGQGTQVTVSS	low polyreactivity
QVQLVETGGGLVQAGGSLSLSCAASGSTSSRYAMGWYRQAPGKEMELVARINWNGGSTYYADSVKGRFTISRDNAKNTVYLQMNSLKPEDTAVYYCAADSFGITYVSYVSIYDFDYWGQGTQLTVSS	low polyreactivity
QVQLVESGGGLVQAGGSLRLSCAASGRIFDHNAMGWYRQAPGKERELVAAINYSDDSTYYADSVKGRFTISRDNAKNTVYLQMNSLKPEDTAVYYCNADVGSEYSDKYDYWGQGTQVTVSS	low polyreactivity
QVQLVESGGGLVQAGGSLRISCAASGFTFALYAMGWYRQAPGKERELVAAITRRGGSTYYADSVKGRFTISRDNAKNTVYLQMNSLKPEDTAVYNCAKRERAIKVSRYDSHDYWGQGTQVTVSS	high polyreactivity
QVQLVESGGGLVQAGGSLRLSCAASGFTFNYYAMGSYRQAPGKERELVAAITWRSGRTSYADSVKGRFTISRDNAKNTVYLQMNSLKPEDTAVYYCAKYPIYSGLTRYGYWGQGTQVTVSS	high polyreactivity
QVQLVESGGGLVQAGGSLRLSCAASGYSFSYYAMGWSRQAPGKERELVAAISWSGGSTYYADSVKGRFTISRDNAKNTVYLQMNRLKPEDTAVYYCATEVVAYRRYSAYGYWGQGTQVTVSS	high polyreactivity
QVQLVESGGGLVQAGGSLRLSCAASGLTLDKYAMGWYRQAPGKERELVAGINSRGGSTYADSVKGRFTISRDNAKNTVYLQMNSMKPEDTAVYYCAADGKVQGGYYWGQGTQVTVSS	high polyreactivity
QVQLVESCGGLVQAGGSLRLISAASGRTFGHNTMGWYRQAPGKEREYVAAIRWTAGSTYYADSVKGRFTISRDNAKNTVYLQMNSLKPEDTAVYYCAAYYVERRSYRVDRGTTLGYWGQGTQVTVSS	high polyreactivity
QVQLVESGGGLVQAGGSLRLSCAASGSIFFANAMGWYRPAPGKERELVATITSGGSTTYADSLKGRFTISRDNAKNTVYLQMNSLKPEDTAVYYCNADYDYGWVFYSNYDYWGQGTQVTVSS	low polyreactivity
QVQLVESGGGLVQAGGSLRLSCAASGFIFGFYAMGWYRQAPGKERELVAAITSDGGTYYADSVKGRFTISRDNAKNTVYLQMNSLKPEDTAVYYCAADVLYEVFSWYVGYDYWGQGTQVTVSS	low polyreactivity
QVQLVESGGGLVQAGGSLRLSCAASGGTIISYAMGWYRQAPRKERELVAAISRGGSSTYYADSVKGRFTISRDNAKNTVYLQMNSLKPEDTAVYYCVQLTRSGPDLDSWGQGTQVTVSS	high polyreactivity
QVQLEESGGGLVQAGGSLRLSCAASGFTFTTNAMGWYRQAPGKERELVAAISFSGGTTYYADSVKGRFTISRDNAKNTVYLQMNSLKPEDTAVYYCAAQPGQAWWSTDHDDYWGQGTQVSVSS	low polyreactivity
QVQLVESGGGLVQAGGSLRLSCAASGRTFYLNAMGWYRQAPGKVRELVAAIRFSGGSTYYADSVKGRFTISRDNAKNTVYLQMNSLKPEDTAVYYCNAGPYHSLYPTVSEYGYWGQGTQVTVSS	low polyreactivity
QVQLVESGGGLVQAGGSLRLSCAPSGRIFYSYAMGWYRQAPGKVRELVAAIRSRGGSTRYADSVKGRFTISRDNAKNNVYLQMNSLKPEDTAVYYCAATGYQSRGSSDYWGQGTQVSVSS	high polyreactivity
QVQLVESGGGLVQERGSLRLSCAASGRIFGKYAMAWYRLAPGKERELVATISYGGGNTYYADSVKGRFTISRDNAKNTVYLQMNSMKPEDTAVYYCARVPYAYLRYKPFQQYSYDYWGQGTKVTVSS	high polyreactivity
QVQLVESGGGLVQAGGSLRLTCAASGFIFVRNAMGWYRQAPGKERDLVAAISSRGGRTYYADSVKGRFTISRDNAKYTVYLQMNRLKPEDTAVYYCNADRDTQGDGYDYWGQGTQVTVSS	high polyreactivity
QVQLVESGGGLVQAGGSLRLSCAASGSIFKYYTMGWYRQAPGKERELVARISTRGDSTYYADSVKGRFTISRDNAKNTVYLQMNSLKPEDTAVYYCNARPGSRRSSTWGMDYWGQGTQVTVSS	high polyreactivity
QVQLVESGGGLVQAGGSLRLSCAASGITLPVYGKGWYRQAPGKERELVAVIDIVGITNYADSVKGRFTISRDNAKNTVYLQMNSLKPEDTAVYYCAKRYVYIADGGEYYYWGQGTQVTVSS	low polyreactivity
QVQLVESGGGLVQAGGSLRLSCAASGSIFGTYAMGWYRQAPGNERELVAAITGNGGRTYYADSVKGRFTISRDNAKNTVYLQMNSLKPEDTAVYYCAKATSRRGFYYWGQGTQVTVSS	high polyreactivity
QVQLVESGGGLVQAGGSLRLSCAASGSIFGYNPMGWYIQAPGKERELVAAISRSGGRTYYADSVKGRFTISRDNAKNTVYLQMNSLKPEDTAVYDCAAPVWRYYRGKTFDYWGQGTQVTVSS	high polyreactivity
QVQLVESGGGLVQAGGSLRLSCAASGRTFSRNAMAWYRQAPGKERELVAAISRRGVSTYYADSVKGRFTISRDNAKNTVYLQMNSLKPDDTAVFYCNTRGTYRYDYWGQGTQVTVSS	low polyreactivity

Sequence	polyreactivity (PSR sort gate)
QVQLVESGGGLVQAGGSLRLSCAASGRTLTRNAMAWYRQAPRTERELVAVITSSGSRTYYADSVKGRFTISRDNAKNTVYLQMNSLKPEDTAVYYCAAKVDASDVRRSRAGRYDYWGQGTQVTVSS	high polyreactivity
QVQLVSGGGLVHSGGSLRLSCAASGITFESNAMGWYRQGPGKEREFVAAISYDGGDTYYADSVKGRFTISRDNAKNTVYLQMNSLKPDDTSVYYCAAETGWTMDYWGQGTQVTVSS	low polyreactivity
QVQLVESGGGLVQAGGSLRLSCAASGRTFPYYAMGWYRQAPGKERELVAAISSSGGSTYYADSVKGRFTISRDNAKNTVYLQMNSLKPEDTEVYYCAAVYQFIKWGDRYEYWGQGTQVTVSS	high polyreactivity
QVHLVESGGGLVQAGGSLRLICAASGYTFAFYAMGCYRQAPGKERELVAAISAGGGRTYYADSVKGRFTISRDNANNTVYLQMNSLKPEDTAVYYCATDLIQGAAPFRYDYWGQGTQVTVSS	low polyreactivity
QVQLVESGGGLVQAGGSHRLRCAASGRIFWSNTMGWYRQAPGKERELVAAISGRGGSTYYADSVKGRFTISRDNAKNTVYLQMNSLKPEDTAVYYCAARYPAYYEAYDYWGQGTQVTVSS	low polyreactivity
QVQLVESGGGLVQAGGSLRLSCAASGRIFGPYAMGWYRQAPRKERELVASISYSGGSTYYADSVKGRFTISRDNAKNTVYLQMNSLKPEDTAVYYCAKGGYWRGYNYWGQGTQVTVSS	low polyreactivity
QVQLVESGGGLVQAGGSLRLSCAASGRTFWPNAMGWYRQAPGKERELVAGIDWSGGSTYYADSVKGRFTISRDNAKNTVYLQMNSLKPEDTAVYYCNKVYYSYIPSTYGYWGQGTQVTVSS	high polyreactivity
QVQRVESGGGLVQAGGSLRLSCAASGLIFGGYAMGWYRQAPGKERELVAAITSGGSTKYADSVKGRFTISRDNAKNTVYLQMNSLKPEDTAVYYCAASGWRNWWSARNYYWGQGTQVTVSS	low polyreactivity
QVQLVESGGGLVQAGGSLRLSCAASGSTFYRYAMGWYRQAPGKERELVAAITSAGSTNYADSVKGRFTISRDNGNNTVYLQMYSLKPVDTAVYYCAADHGRPYFSYDYWGQGSQVTVSS	low polyreactivity
QVQLVESGGGLVQAGGSLRLSCAASGRTFLVYAMGWYRQAPGKDRELVAAISSDGSTHYADSVKGRFTISRDNAKKTVYLQMNSLHPEDTAVYYCARDYYAFSYLYDYWGQGTQVTVSS	low polyreactivity
QVQLVESGGGKVQAGGSLRLSCAASGLTFSRYAMGWYRQAPGKERELVAAISGRGASTSYADSVKGRFTISRDNAKNTVYLQMNSLKPEDTAVYYCAAQKYYHSYLNRHYYWGQGTQVTVSS	high polyreactivity
QVQLVESGGGLVQAGGSLRISCAPSGIIFGYNVMGRYRQAPGKERELVAAISGSGASTYYADSVKGRFTISRDNAKNTVYLQMNSLKPEDTAVYYCARYRGYWGRYYGVDYGYWGQGTQVTVSS	high polyreactivity
QVQLVESGGGLVQAGGSLRLSCAASGYTFYANAMGWYRQAPGKEREFVASSTWSGGSTYYADSVKGRFTISRDNAKNTVYFQMNSLKPEDTAVYYCAADSWFKYDYWGQGTQVTVSS	low polyreactivity
QVQLVESGGGLVQAGGSLPLSCAASGSTFRYNAMGWYRQAPAKERELVAAISSGSSTNYADSVKGRFTISLDNAKNTVYLQMKSLKPEDTAVYYCARRPFYYHQLDDDYWGQGTQVTVSS	low polyreactivity
QVQLVESGGGLVQAGGSLRLSCAASGRTFNSYAMGWYRPAPGKERELVATISSRGGNTFYADSVKGRFTISRDYAKNTVYLQMNRLKPEDTAVYYCAKPGYLRPSRYDYWGQGTQVTVSS	high polyreactivity
QVQLVESCGGLVQAGGSLRLSCAAYGSIFTFYAMGWYRQAPGKERELVAAISSGGDTYYADSVTGRFTISRDNAKNTVYLQMNSLKPEDTAVYYCAADWRGSYLYGYYYWGQGTQVTASS	low polyreactivity
QVQHVESGGGLVQAGGSLRLSCAASGSTFPANAMGRYRQAPVKERELVAVISSGGRTYYADSVKGRFTISRDNAKNTVYLQLNSLKPEDTEVYYCAAGSYAGSGPSPWLEYWGQGTQVTVSS	high polyreactivity
QVQLVESGGGLVQAGGSLRLSCAASGSILFLNAMGWYSQAPGKERELVASITDSGGGTYYADSVKGRFTISRDNAKNTVYLQMNSLKPEDTAVYYCNARSRRPDDYWGQGTQVTVSS	low polyreactivity
QVQLVESGGGLVQAGGSLRLSCAASGRTFVYYAMGWYRQAPGKEREFVAAISRSGGRTSYADSVKGRFTISRDNAKNTVYLQMNSLKPEDTAVYYCAAEKRTQPSSREYYWGQGTQVTVSS	high polyreactivity
QVQLVESGGGLVQAGGSLRLSCAASGYNFYGYAMGWYRLAPGKERELVAAITVRGGSTYYADSVKGRFTISRDNAKNTVYLQMNCQKPEETAVYYCAAAPQFTFGVGYWGQGTQVTVSS	low polyreactivity
QVQLVESGGGLVQAGGSLRLSCAASGTIFYDNAMGWYRQAPAKERELVASIRWSGDSTYYADSVKGRFTISRDNAKNTVYLQMISLKPEDTAVYYCAADPVEPYFTAIAYDYWGQGTQVTVSS	low polyreactivity
